Biological target: T1, POT1 (human, UniProt Q9NUX5 1-634)
T1 sequence: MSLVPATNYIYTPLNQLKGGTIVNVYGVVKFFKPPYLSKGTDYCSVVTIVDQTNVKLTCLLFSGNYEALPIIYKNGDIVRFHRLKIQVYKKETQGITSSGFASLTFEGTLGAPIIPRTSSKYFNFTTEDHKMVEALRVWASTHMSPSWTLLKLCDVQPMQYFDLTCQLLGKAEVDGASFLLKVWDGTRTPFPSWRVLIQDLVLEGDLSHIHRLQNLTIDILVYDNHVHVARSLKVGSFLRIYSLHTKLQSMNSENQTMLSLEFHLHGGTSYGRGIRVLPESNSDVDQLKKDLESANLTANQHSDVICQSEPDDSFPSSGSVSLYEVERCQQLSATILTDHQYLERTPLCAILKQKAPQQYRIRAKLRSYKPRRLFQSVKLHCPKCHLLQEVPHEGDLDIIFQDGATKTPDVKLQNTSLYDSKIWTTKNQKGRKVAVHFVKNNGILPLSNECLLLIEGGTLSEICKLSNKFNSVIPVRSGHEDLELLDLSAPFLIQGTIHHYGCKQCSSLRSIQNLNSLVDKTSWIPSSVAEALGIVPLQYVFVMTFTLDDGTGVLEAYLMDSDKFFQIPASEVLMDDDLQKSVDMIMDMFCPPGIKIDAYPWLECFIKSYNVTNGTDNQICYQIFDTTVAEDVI
Test: smFRET; FRET to 0.45; 10 mM Tris-HCl pH 7.5, 100 mM NaCl, 10% glycerol, oxygen scavenging system (trolox, glucose, glucose oxidase, catalase), ~23 C
Conditions: protein: recombinant; label: 3'Cy3 strand 1; Cy5 and 3'biotin strand 2; 3' overhang 24 nt; 18 bp duplex

B1: T6(TTAGGG)2T6 overhang (mixed)
DNA 1: TGGCGACGGCAGCGAGGCTTTTTTTTAGGGTTAGGGTTTTTT
DNA 2: GCCTCGCTGCCGTCGCCA
- binding result: binds
